Assay results taken from doi:10.1101/2023.01.08.523168 (bioRxiv, 2023).
Like-named read-outs stand apart in the source and are kept apart here. No end group written: not given here. *: point of attachment. Oxazole(5-CO) = O=C(c1cnco1)*; Crotonyl(E) = C/C=C/C(=O)*; 2Furoyl = O=C(c1ccco1)*; Butyryl = CCCC(=O)*

Tests used:
[1] = biological target: T1, 6x His-tagged ENL YEATS domain (human, UniProt Q03111 1-138); assay: BLI
T1 sequence (looked up): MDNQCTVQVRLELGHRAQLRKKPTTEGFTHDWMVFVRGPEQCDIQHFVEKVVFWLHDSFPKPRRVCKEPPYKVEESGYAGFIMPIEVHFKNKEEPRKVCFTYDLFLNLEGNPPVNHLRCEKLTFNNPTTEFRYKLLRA

AF9 YEATS domain [2] = biological target: T2, AF9 YEATS domain (human, UniProt P42568 1-138); assay: BLI
T2 sequence (looked up): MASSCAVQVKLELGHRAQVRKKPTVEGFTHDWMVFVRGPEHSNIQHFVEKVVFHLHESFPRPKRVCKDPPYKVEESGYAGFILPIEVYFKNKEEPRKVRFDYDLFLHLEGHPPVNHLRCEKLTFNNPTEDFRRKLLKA

AF9 YEATS domain [3] = biological target: T2, AF9 YEATS domain; assay: AlphaScreen or HTRF
[4] = biological target: T1, 6x His-tagged ENL YEATS domain; assay: AlphaScreen or HTRF
[5] = biological target: T3, NanoLuc luciferase (NLuc)-ENL YEATS fusion protein (human, UniProt Q03111 1-148); assay: FRET or BRET
T3 sequence (looked up): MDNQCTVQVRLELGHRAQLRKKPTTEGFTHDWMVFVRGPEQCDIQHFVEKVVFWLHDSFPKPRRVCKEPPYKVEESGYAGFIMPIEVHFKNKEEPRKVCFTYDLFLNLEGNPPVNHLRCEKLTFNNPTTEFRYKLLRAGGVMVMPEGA

[6] = biological target: T3, NanoLuc luciferase (NLuc)-ENL YEATS …; assay: FRET or BRET; remark: listed apart in the source
[7] = biological target: T3, NanoLuc luciferase (NLuc)-ENL YEATS …; assay: FRET or BRET; remark: listed apart in the source

Row | Binder | Kd [1] [nM] | Kd (AF9 YEATS domain [2]) [nM] | fold lower potency (IC50) toward AF9 YEATS than toward ENL YEATS (AF9 YEATS domain [3]) [fold] | IC50 [4] [nM] | koff [1] [s⁻¹] | kon [1] [M⁻¹ s⁻¹] | fold selectivity for ENL YEATS over AF9 (AF9 YEATS domain [2]) [fold] | IC50 [5] [nM] | IC50 [6] [nM] | IC50 [7] [nM]
1 | YDVYCYK(Oxazole(5-CO))-NH2 [ENL-S1o] | 2 | 55.1 | 23 | 10 | – | – | – | – | – | –
2 | YDVYCYK(2Furoyl)-NH2 [ENL-S1f] | 10.3 | 144 | 7.7 | 22 | – | – | – | – | – | –
3 | YDVYCYK(Crotonyl(E))-NH2 [ENL-S1c] | 16.2 | 147 | 18 | 20 | – | – | – | – | – | –
4 | WWIIEK(Butyryl)G-NH2 [ENL-S2] | 881 | – | – | 1220 | 0.00554 | 6290 | – | – | – | –
5 | Ac-VYCYK(2Furoyl)-NH2 [tENL-S1f] | – | – | – | – | – | – | 12 | 6400 ± 1600 | 4100 ± 1100 | 4200 ± 1100
6 | YDVYCYK(Butyryl)-NH2 [ENL-S1] | 36.3 | 205 | 4 | 63 | 0.00226 | 62300 | – | – | – | –
